{
  "source": "paper PMC4600727",
  "about": "(2015)",
  "key": {"Stau dsRBD5 Y971K": {"molecular_target": "T1, Stau dsRBD5 Y971K (Drosophila, UniProt P25159 951-1018)", "T1 chain": "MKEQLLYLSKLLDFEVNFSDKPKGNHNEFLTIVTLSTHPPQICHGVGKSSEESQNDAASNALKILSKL", "assay": "ITC"}, "Trx-Stau951-1,018 [1]": {"molecular_target": "T2, Trx-Stau951-1,018 (Drosophila, UniProt P25159 951-1018)", "T2 chain": "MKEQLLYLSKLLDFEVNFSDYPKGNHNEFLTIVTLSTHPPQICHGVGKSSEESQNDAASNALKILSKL", "assay": "ITC; Mira fragments injected into Stau fragments; 25 °C; 50 mM Tris pH 8.0, 100 mM NaCl, 1 mM EDTA"}, "Trx-Stau951-1,018 [2]": {"molecular_target": "T2, Trx-Stau951-1,018", "assay": "ITC"}},
  "data": [
    {"binder": "Trx-Mira514–595 (domain or fragment) NYQLTLTNTRATVNILMERLKKSDADVEQYRAELESVQLAKGALEQSYLVLQADAEQLRQQLTESQDALNALRSSSQTLQSE", "values": [
      {"measurement": "Kd", "setting": "Stau dsRBD5 Y971K", "result": 8.7, "unit": "µM"},
      {"measurement": "Kd", "setting": "Trx-Stau951-1,018 [1]", "result": 1.07, "unit": "µM"}
    ]},
    {"binder": "Mira514–595 R532A (domain or fragment) NYQLTLTNTRATVNILMEALKKSDADVEQYRAELESVQLAKGALEQSYLVLQADAEQLRQQLTESQDALNALRSSSQTLQSE", "values": [
      {"measurement": "Kd", "setting": "Trx-Stau951-1,018 [2]", "result": 72.5, "unit": "µM"}
    ]}
  ]
}
